Data from patent US20120301433A1, “BACTERIOPHAGES EXPRESSING AMYLOID PEPTIDES AND USES THEREOF” (priority 2009, published 2012).

Biological target: amyloid-b1-42 peptide (UniProt P05067)
Test: cell-based or functional assay

Sequence of amyloid-b1-42 peptide (P05067 672-713 limits assumed): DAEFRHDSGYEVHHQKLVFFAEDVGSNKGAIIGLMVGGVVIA
Sequence of T7-RRR-CsgB133-142-PPP (P19727 1-348, tags or fused parts left off): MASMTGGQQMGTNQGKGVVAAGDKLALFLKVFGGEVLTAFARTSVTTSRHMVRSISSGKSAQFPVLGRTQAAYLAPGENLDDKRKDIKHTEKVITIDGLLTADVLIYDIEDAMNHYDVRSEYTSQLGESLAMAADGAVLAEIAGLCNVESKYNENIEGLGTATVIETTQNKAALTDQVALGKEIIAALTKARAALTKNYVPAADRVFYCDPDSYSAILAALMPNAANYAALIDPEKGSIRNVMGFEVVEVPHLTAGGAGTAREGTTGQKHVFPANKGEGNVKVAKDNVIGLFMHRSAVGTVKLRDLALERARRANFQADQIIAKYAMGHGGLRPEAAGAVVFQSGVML

Substance: T7-RRR-CsgB133-142-PPP (from UniProt P19727 1-348)
- Aβ:peptide molar ratio at the doubling of the lag time: 70000
- phage concentration that doubles the lag time of Aβ fiber formation: 5e+07 PFU/mL
